Test results published in IntAct's records for PubMed 15292222.

B1: Protein phosphatase 1 regulatory subunit 12A (Homo sapiens), O14974 (parent)
chain: MKMADAKQKRNEQLKRWIGSETDLEPPVVKRQKTKVKFDDGAVFLAACSSGDTDEVLKLLHRGADINYANVDGLTALHQACIDDNVDMVKFLVENGANINQPDNEGWIPLHAAASCGYLDIAEFLIGQGAHVGAVNSEGDTPLDIAEEEAMEELLQNEVNRQGVDIEAARKEEERIMLRDARQWLNSGHINDVRHAKSGGTALHVAAAKGYTEVLKLLIQAGYDVNIKDYDGWTPLHAAAHWGKEEACRILVDNLCDMEMVNKVGQTAFDVADEDILGYLEELQKKQNLLHSEKRDKKSPLIESTANMDNNQSQKTFKNKETLIIEPEKNASRIESLEQEKVDEEEEGKKDESSCSSEEDEEDDSESEAETDKTKPLASVTNANTSSTQAAPVAVTTPTVSSGQATPTSPIKKFPTTATKISPKEEERKDESPATWRLGLRKTGSYGALAEITASKEGQKEKDTAGVTRSASSPRLSSSLDNKEKEKDSKGTRLAYVAPTIPRRLASTSDIEEKENRDSSSLRTSSSYTRRKWEDDLKKNSSVNEGSTYHKSCSFGRRQDDLISSSVPSTTSTPTVTSAAGLQKSLLSSTSTTTKITTGSSSAGTQSSTSNRLWAEDSTEKEKDSVPTAVTIPVAPTVVNAAASTTTLTTTTAGTVSSTTEVRERRRSYLTPVRDEESESQRKARSRQARQSRRSTQGVTLTDLQEAEKTIGRSRSTRTREQENEEKEKEEKEKQDKEKQEEKKESETSREDEYKQKYSRTYDETYQRYRPVSTSSSTTPSSSLSTMSSSLYASSQLNRPNSLVGITSAYSRGITKENEREGEKREEEKEGEDKSQPKSIRERRRPREKRRSTGVSFWTQDSDENEQEQQSDTEEGSNKKETQTDSISRYETSSTSAGDRYDSLLGRSGSYSYLEERKPYSSRLEKDDSTDFKKLYEQILAENEKLKAQLHDTNMELTDLKLQLEKATQRQERFADRSLLEMEKRERRALERRISEMEEELKMLPDLKADNQRLKDENGALIRVISKLSK

Variants of: B1
Details: with dapk3_human DAPK3, O43293
dapk3_human DAPK3, O43293, sequence (O43293 whole entry, looked up): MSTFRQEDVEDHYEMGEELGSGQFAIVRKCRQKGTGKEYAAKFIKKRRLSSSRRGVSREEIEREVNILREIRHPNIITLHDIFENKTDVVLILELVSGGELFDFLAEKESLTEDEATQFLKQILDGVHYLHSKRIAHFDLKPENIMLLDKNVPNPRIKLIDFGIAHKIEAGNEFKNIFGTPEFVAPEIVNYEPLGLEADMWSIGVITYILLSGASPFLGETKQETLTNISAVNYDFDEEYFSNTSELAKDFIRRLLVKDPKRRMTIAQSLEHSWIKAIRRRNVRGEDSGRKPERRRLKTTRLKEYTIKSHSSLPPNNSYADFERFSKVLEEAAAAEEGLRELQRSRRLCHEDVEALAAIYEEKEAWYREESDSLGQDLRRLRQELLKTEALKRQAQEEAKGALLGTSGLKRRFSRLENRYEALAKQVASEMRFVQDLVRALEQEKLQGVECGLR

effect of a mutation on the interaction | Variant
disrupting interaction | L1007A;L1014A;L1021A;L1028A
